From patent US6753151B1, “Interactions of Ku polypeptides and applications thereof” (Kudos Pharmaceuticals Limited, priority 1999, dated 2004)
“Also recorded” adds a separate entry of the source.

How the values were obtained:
purified DNA-PKcs = target: T1, purified DNA-PKcs (Homo sapiens, UniProt P78527); experiment: GST pull-down with purified DNA-PKcs; type: binding; conditions: for effect of DNA or EtBr on binding of purified DNA-PKcs: 20 ng/μl sonicated calf thymus DNA or 0.2 mg/ml EtBr; for salt dependence of interaction with homogeneous DNA-PKcs: 50 mM to 150 mM KCl; for interaction with purified DNA-PKcs: 120 mM KCl, silver-staining
T1 construct: The starting material for purification of DNA-PKcs was HeLa NE; host or cells: HeLa nuclear extract; purified in house over Q Sepharose, heparin agarose, phenyl Sepharose and Mono-S
Experimental: (§1) GST-Ku70 or GST-Ku80 (0.5-2.0 μg), or deletion derivative thereof, bound to Glutathione agarose beads, was incubated with ˜100 μg (10 μl) of HeLa Cell nuclear extract (NE) and 80 μl of Z′ buffer (25 mM HEPES pH 6.7, 12.5 mM MgCl2, 1 mM dithiothreitol, 0.1% Nonidet P40 (BDH), 20% Glycerol) containing the specified concentration of KCl (for example, 50 mM Z′ contains 50 mM KCl in addition to the other buffer components). Binding reactions were incubated at 4° C. for 3-4 hours and the beads recovered by centrifugation and washed 7 times in 1 ml of Buffer X (25 mM HEPES pH 6.7, 2 mM MgCl2, 1 mM Dithiothreitol, 0.4% Nonidet P40) containing the specified concentration of KCl (for example, 120 mM Buffer X contains 120 mM KCl in addition to the other buffer components). Proteins retained on the beads after washing were eluted in SDS gel-loading buffer and half of the sample subjected to polyacrylamide gel eletrophoresis and silver staining. “Pulldown” assays from purified DNA-PKcs were done as above with 400 ng of purified DNA-PKcs substituted for HeLa NE.
The starting material for purification of DNA-PKcs was HeLa NE obtained from the Computer Cell Culture Centre, Mons, Belgium. All purification steps were performed in buffer D (20 mM HEPES pH 7.6, 2 mm MgCl2, 0.2 mM EDTA, 10% Glycerol) with a specified concentration of KCl (for example 50 mM Buffer D contains 50 mM KCl in addition to the other buffer components). In a representative purification, 35 ml of HeLa NE was cleared by centrifugation and diluted to a final concentration of 50 mM Buffer D, and protease inhibitors added (Boehringer). This was loaded onto a 60 ml column of Q Sepharose (Pharmacia) and eluted in a linear salt gradient of 50-500 mM Buffer D. Under these conditions the majority of DNA-PKcs and Ku were separated into two fractions peaking at approximately 200 mM Buffer D, and 450 mM Buffer D respectively. The DNA-PKcs fraction was adjusted to 100 mM KCl using 0 mM Buffer D (salt concentration was measured by conductivity) and applied to a 10 ml column of heparin agarose (Sigma). The column was developed with a linear gradient of 100-200 mM Buffer D. The peak DNA-PKcs fraction from the heparin column was adjusted to 0.5 M ammonium sulphate and applied to a 2.5 ml column of phenyl Sepharose (Pharmacia) equilibrated in, typically, 300 mM Buffer D containing 0.5 M ammonium sulphate. Under these conditions, 100% of DNA-PKcs is retained by the column, whilst the majority of contaminating Ku flows through (as judged by western blotting using antibodies specific to the Ku subunits). The column was then washed extensively in 0 mM Buffer D containing 0.5 M ammonium sulphate, and subsequently in 0 mM Buffer D containing 0.4 M ammonium sulphate, which removes most of the remaining Ku, before applying a linear gradient of 0.4-0 M ammonium sulphate in 0 mM Buffer D. Peak DNA-PKcs fractions were dialysed into 50 mM Buffer D, applied to a 1 ml Mono-S FPLC column (Pharmacia), and eluted in a linear gradient of 50-500 mM Buffer D. Peak fractions were dialysed into 50 mM Buffer D and stored at −80° C. prior to use. The resulting protein preparation contained a single abundant polypeptide corresponding to DNA-PKcs as judged by Coomassie staining, silver staining and western blotting, with a ladder of smaller DNA-PKcs breakdown products. […] To assess the levels of Ku contamination in the DNA-PKcs preparation we carried out quantitative western blotting using Ku-specific antibodies. In these western blots, an essentially homogeneous preparation of Ku was titrated against known amounts of our DNA-PKcs preparations.
GST-Ku70 or GST-Ku80 containing glutathione agarose beads were incubated with 0.4 μg of purified DNA-PKcs under conditions of 120 mM KCl. The beads were then washed and any proteins retained on the beads were detected by silver-staining.
A control binding reaction using beads containing GST alone was also carried out. […]

DNA-PKcs = DNA-PKcs (Homo sapiens, UniProt P78527); experiment: GST pull-down from HeLa cell nuclear extract; type: binding; design: incubated with ˜100 μg (10 μl) of HeLa Cell nuclear extract (NE); host or cells: HeLa cell nuclear extract; conditions: for effect of EtBr on interaction with DNA-PKcs in HeLa nuclear extract: EtBr 0.2 mg/ml; for proteins retrieved from crude HeLa nuclear extract: washed in buffer X containing 150 mM KCl, silver-staining
Experimental: as §1
The inventors performed pull-down assays from HeLa cell nuclear extract using GST-Ku70 or GST-Ku80 bound to glutathione agarose beads. Thus, GST-Ku70 or GST-Ku80 protein was purified on glutathione agarose beads as described above, and the beads incubated with crude HeLa cell nuclear extract and washed extensively in buffer X containing 150 mM KCl. The bound proteins were then eluted in the presence of SDS, subjected to SDS-PAGE on a 6% polyacrylamide gel and detected by silver-staining. A control binding reaction was carried out using beads containing only GST.
The inventors investigated whether the observed interactions between DNA-PKcs and the individual Ku subunits were indirect and were being mediated by DNA and/or the Ku heterodimer present in the HeLa nuclear extract. EtBr was used in a final concentration of 0.2 mg/ml in order to address the potential involvement of DNA (EtBr disrupts protein-DNA interactions).

T1 sequence (P78527 whole entry): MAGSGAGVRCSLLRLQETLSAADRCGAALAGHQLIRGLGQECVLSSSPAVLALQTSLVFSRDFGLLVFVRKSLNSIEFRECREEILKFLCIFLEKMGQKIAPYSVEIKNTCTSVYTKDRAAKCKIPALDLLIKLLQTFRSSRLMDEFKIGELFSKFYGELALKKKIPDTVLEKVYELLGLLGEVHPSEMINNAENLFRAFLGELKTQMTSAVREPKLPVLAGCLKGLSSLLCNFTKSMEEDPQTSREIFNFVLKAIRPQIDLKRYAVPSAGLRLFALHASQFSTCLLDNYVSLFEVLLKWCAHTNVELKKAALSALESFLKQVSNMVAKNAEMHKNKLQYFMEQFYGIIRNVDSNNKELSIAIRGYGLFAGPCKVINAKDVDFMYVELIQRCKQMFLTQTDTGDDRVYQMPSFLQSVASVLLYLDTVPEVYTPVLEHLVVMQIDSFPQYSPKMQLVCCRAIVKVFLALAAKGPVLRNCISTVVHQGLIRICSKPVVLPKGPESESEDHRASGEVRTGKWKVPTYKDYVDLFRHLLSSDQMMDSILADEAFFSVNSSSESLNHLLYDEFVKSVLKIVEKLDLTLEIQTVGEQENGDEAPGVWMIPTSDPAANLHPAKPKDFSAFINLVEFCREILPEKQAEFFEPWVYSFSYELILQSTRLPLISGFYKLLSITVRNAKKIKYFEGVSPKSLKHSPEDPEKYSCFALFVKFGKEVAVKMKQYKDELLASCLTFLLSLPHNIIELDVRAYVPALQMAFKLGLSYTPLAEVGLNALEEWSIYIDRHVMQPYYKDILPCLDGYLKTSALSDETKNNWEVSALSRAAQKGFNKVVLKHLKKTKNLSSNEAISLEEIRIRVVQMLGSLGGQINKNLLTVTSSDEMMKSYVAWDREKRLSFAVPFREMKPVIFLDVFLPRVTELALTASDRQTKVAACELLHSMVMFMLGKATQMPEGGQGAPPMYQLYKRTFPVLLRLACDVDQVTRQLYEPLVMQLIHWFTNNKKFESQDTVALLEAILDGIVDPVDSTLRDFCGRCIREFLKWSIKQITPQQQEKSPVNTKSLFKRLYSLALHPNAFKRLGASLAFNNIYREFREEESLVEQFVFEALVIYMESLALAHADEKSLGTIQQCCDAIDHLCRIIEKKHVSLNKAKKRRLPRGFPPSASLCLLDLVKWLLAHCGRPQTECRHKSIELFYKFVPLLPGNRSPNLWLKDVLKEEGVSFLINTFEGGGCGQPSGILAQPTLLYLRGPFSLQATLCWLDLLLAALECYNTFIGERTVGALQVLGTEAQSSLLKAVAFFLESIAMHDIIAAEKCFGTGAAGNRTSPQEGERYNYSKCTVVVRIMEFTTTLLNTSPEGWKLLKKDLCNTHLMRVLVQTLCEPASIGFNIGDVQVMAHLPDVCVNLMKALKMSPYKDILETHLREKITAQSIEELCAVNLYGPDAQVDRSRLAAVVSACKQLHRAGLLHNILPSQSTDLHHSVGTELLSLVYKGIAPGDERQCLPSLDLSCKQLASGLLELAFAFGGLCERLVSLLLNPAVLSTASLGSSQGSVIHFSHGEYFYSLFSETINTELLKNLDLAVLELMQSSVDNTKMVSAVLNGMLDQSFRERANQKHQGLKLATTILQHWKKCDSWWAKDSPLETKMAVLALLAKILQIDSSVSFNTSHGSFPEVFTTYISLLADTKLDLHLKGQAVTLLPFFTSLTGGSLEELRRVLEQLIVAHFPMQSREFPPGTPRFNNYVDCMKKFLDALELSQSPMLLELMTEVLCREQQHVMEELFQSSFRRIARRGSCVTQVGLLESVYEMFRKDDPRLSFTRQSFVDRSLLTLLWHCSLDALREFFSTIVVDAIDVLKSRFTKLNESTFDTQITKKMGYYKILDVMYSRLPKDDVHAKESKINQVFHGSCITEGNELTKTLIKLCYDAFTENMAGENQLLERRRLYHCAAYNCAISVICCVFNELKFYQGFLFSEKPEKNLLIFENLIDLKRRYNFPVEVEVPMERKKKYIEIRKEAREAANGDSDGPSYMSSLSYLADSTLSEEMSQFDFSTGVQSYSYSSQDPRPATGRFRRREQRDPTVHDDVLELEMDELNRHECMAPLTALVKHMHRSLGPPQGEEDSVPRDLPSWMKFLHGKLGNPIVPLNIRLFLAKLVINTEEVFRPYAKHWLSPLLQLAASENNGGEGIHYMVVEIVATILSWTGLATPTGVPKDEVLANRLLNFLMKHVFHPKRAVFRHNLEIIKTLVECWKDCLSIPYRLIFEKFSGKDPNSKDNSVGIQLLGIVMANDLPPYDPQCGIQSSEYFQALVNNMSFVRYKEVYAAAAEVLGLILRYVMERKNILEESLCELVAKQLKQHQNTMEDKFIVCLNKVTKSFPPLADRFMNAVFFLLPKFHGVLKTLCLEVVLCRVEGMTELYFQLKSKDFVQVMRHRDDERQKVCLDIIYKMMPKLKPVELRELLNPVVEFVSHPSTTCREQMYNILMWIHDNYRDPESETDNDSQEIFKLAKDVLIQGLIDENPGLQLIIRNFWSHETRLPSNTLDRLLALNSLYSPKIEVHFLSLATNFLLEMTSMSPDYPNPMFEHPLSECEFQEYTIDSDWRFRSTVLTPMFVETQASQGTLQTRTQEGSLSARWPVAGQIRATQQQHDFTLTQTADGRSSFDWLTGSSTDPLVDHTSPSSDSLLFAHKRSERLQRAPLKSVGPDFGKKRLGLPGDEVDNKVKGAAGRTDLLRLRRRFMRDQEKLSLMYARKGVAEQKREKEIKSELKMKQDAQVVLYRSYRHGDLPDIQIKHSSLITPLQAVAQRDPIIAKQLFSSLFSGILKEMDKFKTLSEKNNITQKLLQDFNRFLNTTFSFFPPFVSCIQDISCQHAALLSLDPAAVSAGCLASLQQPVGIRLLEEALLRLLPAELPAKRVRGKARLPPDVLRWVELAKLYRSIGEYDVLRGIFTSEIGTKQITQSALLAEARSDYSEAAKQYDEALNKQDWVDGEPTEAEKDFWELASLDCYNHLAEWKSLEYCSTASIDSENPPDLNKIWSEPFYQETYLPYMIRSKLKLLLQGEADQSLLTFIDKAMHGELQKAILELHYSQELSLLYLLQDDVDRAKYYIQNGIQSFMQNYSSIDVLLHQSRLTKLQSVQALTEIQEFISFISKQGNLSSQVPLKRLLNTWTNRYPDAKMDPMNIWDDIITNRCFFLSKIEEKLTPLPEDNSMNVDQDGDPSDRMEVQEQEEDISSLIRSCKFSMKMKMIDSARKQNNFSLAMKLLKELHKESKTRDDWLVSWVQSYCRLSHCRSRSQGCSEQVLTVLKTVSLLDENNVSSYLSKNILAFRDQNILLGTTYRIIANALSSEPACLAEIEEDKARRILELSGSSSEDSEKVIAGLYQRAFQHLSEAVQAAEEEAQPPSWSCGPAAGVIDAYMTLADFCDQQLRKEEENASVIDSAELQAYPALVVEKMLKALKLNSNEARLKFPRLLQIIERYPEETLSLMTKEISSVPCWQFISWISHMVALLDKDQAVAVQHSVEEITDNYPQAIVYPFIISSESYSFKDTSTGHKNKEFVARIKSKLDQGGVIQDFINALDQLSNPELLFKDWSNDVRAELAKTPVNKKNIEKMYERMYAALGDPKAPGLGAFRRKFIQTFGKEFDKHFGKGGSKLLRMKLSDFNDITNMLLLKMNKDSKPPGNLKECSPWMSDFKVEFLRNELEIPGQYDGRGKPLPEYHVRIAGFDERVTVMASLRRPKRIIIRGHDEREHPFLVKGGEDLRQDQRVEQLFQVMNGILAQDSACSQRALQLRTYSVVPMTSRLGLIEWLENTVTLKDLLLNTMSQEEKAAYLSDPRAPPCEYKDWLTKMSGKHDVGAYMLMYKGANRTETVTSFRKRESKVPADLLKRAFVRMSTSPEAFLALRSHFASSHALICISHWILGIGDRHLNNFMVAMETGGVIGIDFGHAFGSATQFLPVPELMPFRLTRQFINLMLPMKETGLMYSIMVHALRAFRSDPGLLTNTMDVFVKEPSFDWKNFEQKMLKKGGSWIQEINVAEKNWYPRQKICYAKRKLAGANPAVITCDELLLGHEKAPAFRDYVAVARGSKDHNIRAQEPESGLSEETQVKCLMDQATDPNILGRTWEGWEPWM
Chain of DNA-PKcs (P78527 whole entry): as above

Row | Substance | effect of DNA or EtBr on binding of purified DNA-PKcs (purified DNA-PKcs) | effect of DNA or EtBr on binding of purified DNA-PKcs (purified DNA-PKcs; listed as Ku70) | salt dependence of interaction with homogeneous DNA-PKcs (purified DNA-PKcs) | interaction with purified DNA-PKcs (purified DNA-PKcs) | effect of EtBr on interaction with DNA-PKcs in HeLa nuclear extract (DNA-PKcs) | proteins retrieved from crude HeLa nuclear extract (DNA-PKcs)
1 | GST-Ku70: full length human Ku70 fused to glutathione S-transferase, expressed in E. coli | no affect | no stimulation of binding was observed in the presence of DNA | at lower but not at higher ionic strengths, there is an interaction | very little interaction | essentially abolished by EtBr treatment | DNA-PKcs is the only protein that is retrieved
2 | GST-Ku80: full length human Ku80 fused to glutathione S-transferase, expressed in E. coli | not affected by EtBr or by sheared genomic DNA; also recorded: no affect | – | still easily detectable at 150 mM KCl | interacts efficiently with purified DNA-PKcs | unaffected by EtBr | DNA-PKcs is the only protein that is retrieved
